B1: SND1: host protein, UniProt Q7KZF4 (protein, UniProt Q7KZF4 2-910, looked up)
Staphylococcal nuclease …: ASSAQSGGSSGGPAVPTVQRGIIKMVLSGCAIIVRGQPRGGPPPERQINLSNIRAGNLARRAAATQPDAKDTPDEPWAFPAREFLRKKLIGKEVCFTIENKTPQGREYGMIYLGKDTNGENIAESLVAEGLATRREGMRANNPEQNRLSECEEQAKAAKKGMWSEGNGSHTIRDLKYTIENPRHFVDSHHQKPVNAIIEHVRDGSVVRALLLPDYYLVTVMLSGIKCPTFRREADGSETPEPFAAEAKFFTESRLLQRDVQIILESCHNQNILGTILHPNGNITELLLKEGFARCVDWSIAVYTRGAEKLRAAERFAKERRLRIWRDYVAPTANLDQKDKQFVAKVMQVLNADAIVVKLNSGDYKTIHLSSIRPPRLEGENTQDKNKKLRPLYDIPYMFEAREFLRKKLIGKKVNVTVDYIRPASPATETVPAFSERTCATVTIGGINIAEALVSKGLATVIRYRQDDDQRSSHYDELLAAEARAIKNGKGLHSKKEVPIHRVADISGDTQKAKQFLPFLQRAGRSEAVVEYVFSGSRLKLYLPKETCLITFLLAGIECPRGARNLPGLVQEGEPFSEEATLFTKELVLQREVEVEVESMDKAGNFIGWLHIDGANLSVLLVEHALSKVHFTAERSSYYKSLLSAEEAAKQKKEKVWAHYEEQPVEEVMPVLEEKERSASYKPVFVTEITDDLHFYVQDVETGTQLEKLMENMRNDIASHPPVEGSYAPRRGEFCIAKFVDGEWYRARVEKVESPAKIHVFYIDYGNREVLPSTRLGTLSPAFSTRVLPAQATEYAFAFIQVPQDDDARTDAVDSVVRDIQNTQCLLNVEHLSAGCPHVTLQFADSKGDVGLGLVKEGLVMVEVRKEKQFQKVITEYLNAQESAKSARLNLWRYGDFRADDADEFGYSR
B2: RALY: host protein, UniProt Q9UKM9 (protein, UniProt Q9UKM9 2-306, looked up)
RNA-binding protein Raly: SLKLQASNVTNKNDPKSINSRVFIGNLNTALVKKSDVETIFSKYGRVAGCSVHKGYAFVQYSNERHARAAVLGENGRVLAGQTLDINMAGEPKPDRPKGLKRAASAIYSGYIFDYDYYRDDFYDRLFDYRGRLSPVPVPRAVPVKRPRVTVPLVRRVKTNVPVKLFARSTAVTTSSAKIKLKSSELQAIKTELTQIKSNIDALLSRLEQIAAEQKANPDGKKKGDGGGAGGGGGGGGSGGGGSGGGGGGGSSRPPAPQENTTSEAGLPQGEARTRDDGDEEGLLTHSEEELEHSQDTDADDGALQ
B3: PABPC4: host protein, UniProt Q13310 (protein, UniProt Q13310 1-644, looked up)
Polyadenylate-binding protein …: MNAAASSYPMASLYVGDLHSDVTEAMLYEKFSPAGPVLSIRVCRDMITRRSLGYAYVNFQQPADAERALDTMNFDVIKGKPIRIMWSQRDPSLRKSGVGNVFIKNLDKSIDNKALYDTFSAFGNILSCKVVCDENGSKGYAFVHFETQEAADKAIEKMNGMLLNDRKVFVGRFKSRKEREAELGAKAKEFTNVYIKNFGEEVDDESLKELFSQFGKTLSVKVMRDPNGKSKGFGFVSYEKHEDANKAVEEMNGKEISGKIIFVGRAQKKVERQAELKRKFEQLKQERISRYQGVNLYIKNLDDTIDDEKLRKEFSPFGSITSAKVMLEDGRSKGFGFVCFSSPEEATKAVTEMNGRIVGSKPLYVALAQRKEERKAHLTNQYMQRVAGMRALPANAILNQFQPAAGGYFVPAVPQAQGRPPYYTPNQLAQMRPNPRWQQGGRPQGFQGMPSAIRQSGPRPTLRHLAPTGSECPDRLAMDFGGAGAAQQGLTDSCQSGGVPTAVQNLAPRAAVAAAAPRAVAPYKYASSVRSPHPAIQPLQAPQPAVHVQGQEPLTASMLAAAPPQEQKQMLGERLFPLIQTMHSNLAGKITGMLLEIDNSELLHMLESPESLRSKVDEAVAVLQAHHAKKEAAQKVGAVAAATS
B4: LRRC47: host protein, UniProt Q8N1G4 (protein, UniProt Q8N1G4 2-583, looked up)
Leucine-rich …: AAAAVSESWPELELAERERRRELLLTGPGLEERVRAAGGQLPPRLFTLPLLHYLEVSGCGSLRAPGPGLAQGLPQLHSLVLRRNALGPGLSPELGPLPALRVLDLSGNALEALPPGQGLGPAEPPGLPQLQSLNLSGNRLRELPADLARCAPRLQSLNLTGNCLDSFPAELFRPGALPLLSELAAADNCLRELSPDIAHLASLKTLDLSNNQLSEIPAELADCPKLKEINFRGNKLRDKRLEKMVSGCQTRSILEYLRVGGRGGGKGKGRAEGSEKEESRRKRRERKQRREGGDGEEQDVGDAGRLLLRVLHVSENPVPLTVRVSPEVRDVRPYIVGAVVRGMDLQPGNALKRFLTSQTKLHEDLCEKRTAATLATHELRAVKGPLLYCARPPQDLKIVPLGRKEAKAKELVRQLQLEAEEQRKQKKRQSVSGLHRYLHLLDGNENYPCLVDADGDVISFPPITNSEKTKVKKTTSDLFLEVTSATSLQICKDVMDALILKMAEMKKYTLENKEEGSLSDTEADAVSGQLPDPTTNPSAGKDGPSLLVVEQVRVVDLEGSLKVVYPSKADLATAPPHVTVVR
B5: DDX17 (protein, UniProt Q92841 1-729, looked up)
Probable ATP-dependent RNA …: MPTGFVAPILCVLLPSPTREAATVASATGDSASERESAAPAAAPTAEAPPPSVVTRPEPQALPSPAIRAPLPDLYPFGTMRGGGFGDRDRDRDRGGFGARGGGGLPPKKFGNPGERLRKKKWDLSELPKFEKNFYVEHPEVARLTPYEVDELRRKKEITVRGGDVCPKPVFAFHHANFPQYVMDVLMDQHFTEPTPIQCQGFPLALSGRDMVGIAQTGSGKTLAYLLPAIVHINHQPYLERGDGPICLVLAPTRELAQQVQQVADDYGKCSRLKSTCIYGGAPKGPQIRDLERGVEICIATPGRLIDFLESGKTNLRRCTYLVLDEADRMLDMGFEPQIRKIVDQIRPDRQTLMWSATWPKEVRQLAEDFLRDYTQINVGNLELSANHNILQIVDVCMESEKDHKLIQLMEEIMAEKENKTIIFVETKRRCDDLTRRMRRDGWPAMCIHGDKSQPERDWVLNEFRSGKAPILIATDVASRGLDVEDVKFVINYDYPNSSEDYVHRIGRTARSTNKGTAYTFFTPGNLKQARELIKVLEEANQAINPKLMQLVDHRGGGGGGGGRSRYRTTSSANNPNLMYQDECDRRLRGVKDGGRRDSASYRDRSETDRAGYANGSGYGSPNSAFGAQAGQYTYGQGTYGAAAYGTSSYTAQEYGAGTYGASSTTSTGRSSQSSSQQFSGIGRSGQQPQPLMSQQFAQPPGATNMIGYMGQTAYQYPPPPPPPPPSRK

test system: SARS-CoV-2 gRNA; assay type: binding; details: not given

Molecule | enrichment in SARS-CoV-2 Probe I RNP capture
B1 | found in the SARS-CoV-2 experiments
B2 | found in the SARS-CoV-2 experiments
B3 | found in the SARS-CoV-2 experiments

same assay, conditions: […]; LC-MS/MS; Probe I sample (first 199 lines of Table 2)

Molecule | target (unweighted spectral count of the protein in the RNP capture)
B4 | 14
B1 | 16
B2 | 33
B5 | 24

test system: gRNA of HCoV-OC43; assay type: binding; details: type g_36_m; HCoV-OC43-infected HCT-8 cells, 36 hpi, Probe I

Molecule | target (spectral count)
B1 | 16
B2 | 28
B3 | 12

same assay, conditions: type g_36_m; uninfected-probe control, 36 hpi, Probe I

Molecule | background (spectral count)
B1 | 3
B2 | 3
B3 | 2

same assay, conditions: type n_48_v: 48 hours post-infection, infected cells, OC43 Probe I; unweighted spectral count

Molecule | target (spectral count, OC43 Probe I RNP capture)
B1 | 25
B2 | 31
B3 | 11

same assay, conditions: type n_48_v: 48 hours post-infection, no-probe control on infected cells

Molecule | background (spectral count, no-probe control)
B1 | 6
B2 | 2
B3 | 1

test system: HCoV-OC43 gRNA and sgRNA; assay type: binding; details: 24 hpi; type n_24_v; tested against no-probe control; FDR<10%

Molecule | target (unweighted spectral count, OC43 Probe II capture)
B4 | 4

same assay, conditions: 36 hpi; type n_36_v; tested against no-probe control; FDR<10%

Molecule | target (unweighted spectral count, OC43 Probe II capture)
B1 | 57
B2 | 23
B5 | 17
B3 | 11

same assay, conditions: OC43 Probe II, 12 hpi (type n_12_v), infected cells; tested against no-probe control

Molecule | target (unweighted spectral count)
B1 | 27
B2 | 4

same assay, conditions: OC43 Probe II, 24 hpi (type n_24_v), infected cells; tested against no-probe control

Molecule | target (unweighted spectral count)
B1 | 37
B2 | 14
B5 | 9
B3 | 6

same assay, conditions: type n_48_v; 48 hpi; OC43 Probe II capture on infected cells

Molecule | target (unweighted spectral count, OC43 Probe II)
B1 | 84
B2 | 24
B3 | 11

same assay, conditions: type n_48_v; 48 hpi; no-probe control on infected cells

Molecule | background (unweighted spectral count, no-probe control)
B1 | 6
B2 | 2
B3 | 1

same assay, conditions: type s_36_m; HCoV-OC43-infected HCT-8 cells, 36 hpi, Probe II

Molecule | target (spectral count)
B4 | 7
B1 | 57
B2 | 23
B3 | 11

same assay, conditions: type s_36_m; uninfected-probe control, 36 hpi, Probe II

Molecule | background (spectral count)
B4 | 1
B1 | 1
B2 | 2
B3 | 1

test system: SARS-CoV-2 gRNA and sgRNAs; assay type: binding; details: not given

Molecule | enrichment in SARS-CoV-2 Probe II RNP capture
B1 | found in the SARS-CoV-2 experiments
B2 | found in the SARS-CoV-2 experiments
B3 | found in the SARS-CoV-2 experiments

same assay, conditions: Probe II capture; […]; LC-MS/MS LFQ

Molecule | target (unweighted spectral count in RNP capture)
B4 | 13
B2 | 28
B5 | 15

same assay, conditions: no-probe control pull-down, used as background for Probe II

Molecule | background (unweighted spectral count in control)
B4 | 1
B1 | 1
B2 | 1
B5 | 1

Source: patent US20230407373A1 (priority 2020, published 2023)
